Measured values reported in publication PMC8523169, “Competitive binding of MatP and topoisomerase IV to the MukB hinge domain” (eLife, 2021).
Read-outs that look alike come from different tables or passages of the source.

Assays:
[1] = molecular target: T1, full-length MukB (wild type) (E. coli, UniProt P22523 1-1486); test: fluorescence correlation spectroscopy (FCS); competition: MatP-Cy3B fixed at 1 nM, MukB at 400 nM; ParC variants at 10-fold, unlabeled MatP at 50-fold, DNA at 2.5-fold molar excess; details: both partners purified
T1 construct: MukB, E. coli, full length; also called WT MukB; unlabeled MukB; source: purified as described (Zawadzka et al., 2018)
T1 sequence (looked up): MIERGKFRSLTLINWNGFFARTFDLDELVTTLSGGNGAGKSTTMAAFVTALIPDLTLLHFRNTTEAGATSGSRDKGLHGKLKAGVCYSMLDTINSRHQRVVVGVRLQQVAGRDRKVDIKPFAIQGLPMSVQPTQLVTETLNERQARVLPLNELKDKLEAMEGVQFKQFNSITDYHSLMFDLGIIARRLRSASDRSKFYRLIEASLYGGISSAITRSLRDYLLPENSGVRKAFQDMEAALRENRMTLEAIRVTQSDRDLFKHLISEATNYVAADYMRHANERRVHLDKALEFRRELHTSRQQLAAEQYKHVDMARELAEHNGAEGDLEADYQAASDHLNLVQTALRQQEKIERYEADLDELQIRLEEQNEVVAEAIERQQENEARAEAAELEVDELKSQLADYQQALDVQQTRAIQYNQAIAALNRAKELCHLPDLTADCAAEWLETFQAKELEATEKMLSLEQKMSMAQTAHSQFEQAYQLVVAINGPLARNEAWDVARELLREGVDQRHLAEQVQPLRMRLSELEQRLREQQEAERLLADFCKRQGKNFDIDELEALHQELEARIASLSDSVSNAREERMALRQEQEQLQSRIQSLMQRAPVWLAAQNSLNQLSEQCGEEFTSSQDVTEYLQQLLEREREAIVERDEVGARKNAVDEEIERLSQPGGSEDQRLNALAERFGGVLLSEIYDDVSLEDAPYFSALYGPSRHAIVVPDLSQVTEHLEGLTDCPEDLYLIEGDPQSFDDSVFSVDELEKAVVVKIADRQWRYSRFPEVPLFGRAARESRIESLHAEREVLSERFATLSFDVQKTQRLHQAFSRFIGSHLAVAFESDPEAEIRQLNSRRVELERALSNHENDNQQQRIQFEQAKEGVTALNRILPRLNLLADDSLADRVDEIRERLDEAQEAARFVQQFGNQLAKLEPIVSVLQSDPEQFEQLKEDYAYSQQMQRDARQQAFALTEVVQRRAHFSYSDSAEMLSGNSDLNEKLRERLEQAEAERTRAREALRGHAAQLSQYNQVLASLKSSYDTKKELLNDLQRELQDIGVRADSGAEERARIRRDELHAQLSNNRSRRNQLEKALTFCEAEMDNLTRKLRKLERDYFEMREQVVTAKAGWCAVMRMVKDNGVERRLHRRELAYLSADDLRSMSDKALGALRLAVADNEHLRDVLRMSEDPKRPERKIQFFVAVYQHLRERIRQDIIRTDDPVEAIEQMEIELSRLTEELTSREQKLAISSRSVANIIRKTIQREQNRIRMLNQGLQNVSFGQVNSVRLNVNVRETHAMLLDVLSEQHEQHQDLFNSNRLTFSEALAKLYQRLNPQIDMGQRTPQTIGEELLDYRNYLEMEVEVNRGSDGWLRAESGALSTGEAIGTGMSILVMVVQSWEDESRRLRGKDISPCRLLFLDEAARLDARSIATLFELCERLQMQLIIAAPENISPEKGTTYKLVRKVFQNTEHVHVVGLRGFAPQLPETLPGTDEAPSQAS

[2] = molecular target: the molecule itself; test: native MS; proteins buffer exchanged into 200 mM ammonium acetate pH 8.0, alone or mixed in different ratios (two or three components, with or without 50 bp DNA), 10 min on ice
[3] = molecular target: T2, full-length MukB^KKK (D697K D745K E753K) (E. coli, UniProt P22523 1-1486, D697K | D745K | E753K); test: fluorescence correlation spectroscopy (FCS); titration at constant 1 nM MatP-Cy3B; 20 mM Tris-HCl pH 7.5, 50 mM NaCl, 0.3 mg/mL BSA, 2 mM DTT, 0.05% Tween-20; 22 °C; fitted to the Hill equation; details: both partners purified
T2 construct: MukB, E. coli, full length, with three hinge substitutions
T2 sequence (looked up): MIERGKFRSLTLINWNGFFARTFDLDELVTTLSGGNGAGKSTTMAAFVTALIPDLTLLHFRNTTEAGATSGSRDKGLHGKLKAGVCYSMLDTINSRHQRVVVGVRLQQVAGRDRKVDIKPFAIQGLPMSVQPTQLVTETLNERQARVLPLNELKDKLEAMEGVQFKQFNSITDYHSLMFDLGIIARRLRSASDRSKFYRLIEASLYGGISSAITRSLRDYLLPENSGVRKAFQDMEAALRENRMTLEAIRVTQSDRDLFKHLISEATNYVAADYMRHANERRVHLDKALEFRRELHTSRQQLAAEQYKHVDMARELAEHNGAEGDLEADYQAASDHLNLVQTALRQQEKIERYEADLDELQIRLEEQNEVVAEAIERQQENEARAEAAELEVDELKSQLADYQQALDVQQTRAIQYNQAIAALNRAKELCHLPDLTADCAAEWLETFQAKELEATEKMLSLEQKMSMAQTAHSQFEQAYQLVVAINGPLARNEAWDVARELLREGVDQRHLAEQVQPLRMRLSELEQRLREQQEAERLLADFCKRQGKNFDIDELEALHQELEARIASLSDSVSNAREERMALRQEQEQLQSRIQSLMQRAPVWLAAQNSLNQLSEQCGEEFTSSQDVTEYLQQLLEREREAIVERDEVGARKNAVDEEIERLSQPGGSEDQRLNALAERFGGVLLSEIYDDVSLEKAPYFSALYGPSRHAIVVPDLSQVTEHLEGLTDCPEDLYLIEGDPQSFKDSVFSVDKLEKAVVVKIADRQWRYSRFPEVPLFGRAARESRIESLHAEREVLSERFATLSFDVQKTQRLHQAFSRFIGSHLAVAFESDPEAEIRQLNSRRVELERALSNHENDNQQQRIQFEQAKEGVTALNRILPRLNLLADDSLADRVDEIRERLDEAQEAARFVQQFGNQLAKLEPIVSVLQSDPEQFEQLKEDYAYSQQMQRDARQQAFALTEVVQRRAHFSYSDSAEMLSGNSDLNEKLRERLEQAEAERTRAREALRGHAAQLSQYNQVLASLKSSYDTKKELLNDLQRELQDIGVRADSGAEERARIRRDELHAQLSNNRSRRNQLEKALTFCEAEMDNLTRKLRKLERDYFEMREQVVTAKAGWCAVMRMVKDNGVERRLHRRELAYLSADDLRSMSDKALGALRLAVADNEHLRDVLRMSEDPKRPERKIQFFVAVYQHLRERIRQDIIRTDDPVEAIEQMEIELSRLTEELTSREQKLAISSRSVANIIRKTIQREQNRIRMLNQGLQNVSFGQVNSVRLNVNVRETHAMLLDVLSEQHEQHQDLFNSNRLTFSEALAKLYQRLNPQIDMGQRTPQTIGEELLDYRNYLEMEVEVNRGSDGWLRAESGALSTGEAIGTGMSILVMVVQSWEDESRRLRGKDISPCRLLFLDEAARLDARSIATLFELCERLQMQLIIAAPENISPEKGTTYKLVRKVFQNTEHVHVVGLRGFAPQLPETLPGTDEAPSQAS

[4] = molecular target: T1, full-length MukB (wild type); test: as above; details: both partners purified
[5] = molecular target: T3, MukB long hinge (LH; amino acid residues 568–863) (E. coli, UniProt P22523 568-863); test: ITC; 100 µM MatP titrated into 10 µM LH at 25 °C; one-site model; three repeats; details: both partners purified
T3 construct: MukB, E. coli, residues 568-863: dimeric globular hinge domain and 20% of the coiled-coil region; also called LH (MBP cleaved); LH2; source: NEBExpress cells (pMAL-c5X), purified (amylose, Factor Xa cleavage, HiTrap Q XL, SEC); not shown: MBP, N-terminal, cleaved
T3 sequence (looked up): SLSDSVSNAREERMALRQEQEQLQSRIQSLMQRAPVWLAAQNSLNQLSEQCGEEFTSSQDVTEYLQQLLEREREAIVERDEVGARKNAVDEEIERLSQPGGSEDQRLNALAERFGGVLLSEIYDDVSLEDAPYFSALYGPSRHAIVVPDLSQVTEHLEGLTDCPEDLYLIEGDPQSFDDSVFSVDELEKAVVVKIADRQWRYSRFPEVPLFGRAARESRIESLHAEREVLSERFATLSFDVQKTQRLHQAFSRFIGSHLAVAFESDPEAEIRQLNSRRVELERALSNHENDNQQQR

[6] = molecular target: T3, MukB long hinge (LH; amino acid …); test: native MS; proteins buffer exchanged into 200 mM ammonium acetate pH 8.0, alone or mixed in different ratios (two or three components, with or without 50 bp DNA), 10 min on ice; details: both partners purified
[7] = molecular target: T3, MukB long hinge (LH; amino acid …); test: native gel or EMSA; native PAGE; MatP or variants (7 µM) mixed with LH and/or 50 bp DNA at 1:1(:1), 30 min on ice; Coomassie and ethidium bromide staining; details: both partners purified
[8] = molecular target: the molecule itself; test: native MS; proteins buffer exchanged into 200 mM ammonium acetate pH 8.0, alone or mixed in different ratios (two or three components, with or without 50 bp DNA), 10 min on ice; remark: listed apart in the source

B1: full-length ParC, N-terminal 6xHis-tag (enzyme, E. coli, UniProt P0AFI2 1-752, looked up)
chain: MSDMAERLALHEFTENAYLNYSMYVIMDRALPFIGDGLKPVQRRIVYAMSELGLNASAKFKKSARTVGDVLGKYHPHGDSACYEAMVLMAQPFSYRYPLVDGQGNWGAPDDPKSFAAMRYTESRLSKYSELLLSELGQGTADWVPNFDGTLQEPKMLPARLPNILLNGTTGIAVGMATDIPPHNLREVAQAAIALIDQPKTTLDQLLDIVQGPDYPTEAEIITSRAEIRKIYENGRGSVRMRAVWKKEDGAVVISALPHQVSGARVLEQIAAQMRNKKLPMVDDLRDESDHENPTRLVIVPRSNRVDMDQVMNHLFATTDLEKSYRINLNMIGLDGRPAVKNLLEILSEWLVFRRDTVRRRLNYRLEKVLKRLHILEGLLVAFLNIDEVIEIIRNEDEPKPALMSRFGLTETQAEAILELKLRHLAKLEEMKIRGEQSELEKERDQLQGILASERKMNNLLKKELQADAQAYGDDRRSPLQEREEAKAMSEHDMLPSEPVTIVLSQMGWVRSAKGHDIDAPGLNYKAGDSFKAAVKGKSNQPVVFVDSTGRSYAIDPITLPSARGQGEPLTGKLTLPPGATVDHMLMESDDQKLLMASDAGYGFVCTFNDLVARNRAGKALITLPENAHVMPPVVIEDASDMLLAITQAGRMLMFPVSDLPQLSKGKGNKIINIPSAEAARGEDGLAQLYVLPPQSTLTIHVGKRKIKLRPEELQKVTGERGRRGTLMRGLQRIDRVEIDSPRRASSGDSEE
notes: ParC subunit of topoisomerase IV, E. coli, full length; also called His-ParC; ParC2; source: overexpressed, purified as previously published (Nolivos et al., 2016) with an added SEC step; not shown: His6, N-terminal, kept
[1]
  fold decrease in MatP-Cy3B binding to MukB at 10-fold excess of competitor: 3 fold
[2]
  stoichiometry N: 2

B2: Cy3B-labeled MatP-Cys-His (domain or fragment, E. coli)
chain: MKYQQLENLESGWKWKYLVKKHREGELITRYIEASAAQEAVDVLLSLENEPVLVNGWIDKHMNPELVNRMKQTIRARRKRHFNAEHQHTRKKSIDLEFIVWQRLAGLAQRRGKTLSETIVQLIEDAENKEKYSDPNSSSVDKLCAAALE
modifications: Cy3B maleimide on the single cysteine engineered into the C-terminal linker
notes: MatP, E. coli, residues 1-132 (MatPΔ18C); C-terminal linker between MatP and its 6xHis-tag with the engineered cysteine; Labeling efficiency 89%; also called MatP-Cy3B; Cy3B-MatP; source: purified as MatP, labeled with Cy3B maleimide, excess dye removed by SEC
[3]
  Kd: ~1600 nM
[4]
  Kd: ~250 nM

B3: MatPΔ18C (1–132), C-terminal 6xHis-tag (domain or fragment, E. coli, UniProt P0A8N0 1-132, looked up)
chain: MKYQQLENLESGWKWKYLVKKHREGELITRYIEASAAQEAVDVLLSLENEPVLVNGWIDKHMNPELVNRMKQTIRARRKRHFNAEHQHTRKKSIDLEFIVWQRLAGLAQRRGKTLSETIVQLIEDAENKEKY
notes: MatP, E. coli, residues 1-132 (deletion of the 18 C-terminal residues); also called MatPΔ18C-His; MatP2; source: overexpressed, purified as previously published (Nolivos et al., 2016) with an added SEC step; not shown: His6, C-terminal, kept
[2]
  stoichiometry N: 2
[5]
  Kd: 590 nM
  dH: -16.8 kcal/mol
  stoichiometry N: 0.96
[6]
  stoichiometry N: 1 MatP dimer per LH dimer

B4: MatP^4A (K71A, Q72A, R75A, and R77A) (domain or fragment, E. coli, UniProt P0A8N0 1-132, looked up)
chain: MKYQQLENLESGWKWKYLVKKHREGELITRYIEASAAQEAVDVLLSLENEPVLVNGWIDKHMNPELVNRMAATIAAARKRHFNAEHQHTRKKSIDLEFIVWQRLAGLAQRRGKTLSETIVQLIEDAENKEKY
notes: MatP, E. coli, residues 1-132 (MatPΔ18C) with four substitutions; source: site-directed mutagenesis, purified using the same protocol as MatP
[7]
  binding result: binds
[8]
  stoichiometry N: 2
